Measured values reported in publication PMC10698503, “Phosphatase specificity principles uncovered by MRBLE:Dephos and global substrate identification” (Molecular Systems Biology, 2023).

Experiments:
Venus-PP1 = experiment: Affinity purification (pulldown) of YFP/Venus-PP1 from mitotic cells, label-free LC-MS/MS; assay type: binding, human; details: for B55 or PP1?: assignment of the co-purified protein as interactor of Venus-B55 and/or Venus-PP1 (both pulldowns); for log2 ratio [Venus-PP1/Venus]: enrichment in Venus-PP1 pulldown over Venus control, from 3 replicates each; for log2 IBAQ [Venus-PP1 1] / log2 IBAQ [Venus-PP1 2] / log2 IBAQ [Venus-PP1 3]: pulldown of Venus-PP1 from mitotic cells, label-free LC-MS/MS, log2 IBAQ of co-purified protein; for log2 IBAQ [Venus-PP1 1]: replicate 1; for log2 IBAQ [Venus-PP1 2]: replicate 2; for log2 IBAQ [Venus-PP1 3]: replicate 3
Text: (§1) We defined interactomes of PP1γ and B55α during mitosis using affinity purification of YFP‐tagged subunits and also proximity‐dependent ligation using miniTurbo to capture interactions at mitotic exit (Appendix Fig S8) (Branon et al, [2018]; Sears et al, [2019]). […] These identified proteins can constitute both regulators and substrates. […] To understand how these protein interactions might shape dephosphorylation, we first aimed at generating interactome networks and overlay regulated sites. We integrated interactomes and information from the STRING database (Szklarczyk et al, [2023]) with our regulated phosphorylation sites to generate a network of complexes and dephosphorylation sites (Fig 4C and Appendix Fig S9A). For PP1, we also integrated information on known and predicted RVxF motifs (Smith et al, [2019]). […] As an example, CASC5 (KNL1) could scaffold PP1 dephosphorylation of CENPC S261, a phosphorylation site in a nuclear localization sequence. In agreement with previous work, PP2A‐B55 regulated dephosphorylation of several nucleoporins at mitotic exit consistent with Nup153 and TPR being present in the interactomes (Cundell et al, [2016]).
(§2) PP1 and B55 cDNAs were cloned into modified versions of pcDNA5/FRT/TO (Invitrogen) to make N‐terminal fusions to YFP, BioID, or TurboID. Stable cell lines were generated into HeLa/FRT/TRex cells (kind gift from S. Taylor), and for YFP affinity, purification cells were synchronized with thymidine and released into nocodazole‐containing media to arrest them in mitosis. Cells were resuspended in lysis buffer (50 mM NaCl, 50 mM Tris 7,4, 1 mM EDTA, 0.1% NP40, 1 mM DTT, and protease inhibitor cocktail), and following sonication, the lysate was clarified by centrifugation. Cell lysate was incubated with GFP‐Trap beads (Chromotek) for 1 h, washed 3 × 1 ml with lysis buffer, and resuspended in SDS–PAGE loading buffer.
(§3) The Q‐Exactive Plus was set to perform an Orbitrap MS1 scan (R = 70 K; AGC target = 1e6) from 350 to 1,500 m/z, followed by HCD MS2 spectra on the 10 most abundant precursor ions detected by Orbitrap scanning (R = 17.5 K; AGC target = 1e5; max ion time = 50 ms) before repeating the cycle. Precursor ions were isolated for HCD by quadrupole isolation at width = 1 m/z and HCD fragmentation at 26 normalized collision energy (NCE). Charge state 2, 3, and 4 ions were selected for MS2. Precursor ions were added to a dynamic exclusion list ± 20 ppm for 15 s. […] Static modifications included carbamidomethylcysteine and variable modifications included oxidized methionine. […] Missing values were imputed from a normal distribution in Perseus to enable statistical analysis and visualization by volcano plot (Tyanova et al, [2016]). Statistical analysis was carried out in Perseus by two‐tailed Student's t‐test.

Venus-B55 = experiment: Affinity purification (pulldown) of YFP/Venus-B55 from mitotic cells, label-free LC-MS/MS; assay type: binding, human; details: for log2 ratio [Venus-B55/Venus]: enrichment in Venus-B55 pulldown over Venus control, from 3 replicates each; for log2 IBAQ [Venus-B55 1] / log2 IBAQ [Venus-B55 2] / log2 IBAQ [Venus-B55 3]: pulldown of Venus-B55 from mitotic cells, label-free LC-MS/MS, log2 IBAQ of co-purified protein; for log2 IBAQ [Venus-B55 1]: replicate 1; for log2 IBAQ [Venus-B55 2]: replicate 2; for log2 IBAQ [Venus-B55 3]: replicate 3
Text: as §1, §2, §3

Molecule | B55 or PP1? (Venus-PP1) | log2 ratio [Venus-PP1/Venus] (Venus-PP1) | log2 IBAQ [Venus-PP1 1] (Venus-PP1) | log2 IBAQ [Venus-PP1 2] (Venus-PP1) | log2 IBAQ [Venus-PP1 3] (Venus-PP1) | log2 ratio [Venus-B55/Venus] (Venus-B55) | log2 IBAQ [Venus-B55 1] (Venus-B55) | log2 IBAQ [Venus-B55 2] (Venus-B55) | log2 IBAQ [Venus-B55 3] (Venus-B55)
EBP2_HUMAN (protein, UniProt Q99848 1-306, looked up) Probable rRNA-processing …: MDTPPLSDSESESDESLVTDRELQDAFSRGLLKPGLNVVLEGPKKAVNDVNGLKQCLAEFKRDLEWVERLDVTLGPVPEIGGSEAPAPQNKDQKAVDPEDDFQREMSFYRQAQAAVLAVLPRLHQLKVPTKRPTDYFAEMAKSDLQMQKIRQKLQTKQAAMERSEKAKQLRALRKYGKKVQTEVLQKRQQEKAHMMNAIKKYQKGFSDKLDFLEGDQKPLAQRKKAGAKGQQMRKGPSAKRRYKNQKFGFGGKKKGSKWNTRESYDDVSSFRAKTAHGRGLKRPGKKGSNKRPGKRTREKMKNRTH | B55/PP1 | 6.44 | 24.17 | 24.63 | 27.56 | 1.82 | 20.14 | 18.75 | 20.44
GAR1_HUMAN (protein, UniProt Q9NY12 1-217, looked up) H/ACA ribonucleoprotein …: MSFRGGGRGGFNRGGGGGGFNRGGSSNHFRGGGGGGGGGNFRGGGRGGFGRGGGRGGFNKGQDQGPPERVVLLGEFLHPCEDDIVCKCTTDENKVPYFNAPVYLENKEQIGKVDEIFGQLRDFYFSVKLSENMKASSFKKLQKFYIDPYKLLPLQRFLPRPPGEKGPPRGGGRGGRGGGRGGGGRGGGRGGGFRGGRGGGGGGFRGGRGGGFRGRGH | B55/PP1 | 5.49 | 19.45 | 19.86 | 24.60 | 3.89 | 18.68 | 18.13 | 17.35
SF01_HUMAN (protein, UniProt Q15637 2-639, looked up) Splicing factor 1: ATGANATPLDFPSKKRKRSRWNQDTMEQKTVIPGMPTVIPPGLTREQERAYIVQLQIEDLTRKLRTGDLGIPPNPEDRSPSPEPIYNSEGKRLNTREFRTRKKLEEERHNLITEMVALNPDFKPPADYKPPATRVSDKVMIPQDEYPEINFVGLLIGPRGNTLKNIEKECNAKIMIRGKGSVKEGKVGRKDGQMLPGEDEPLHALVTANTMENVKKAVEQIRNILKQGIETPEDQNDLRKMQLRELARLNGTLREDDNRILRPWQSSETRSITNTTVCTKCGGAGHIASDCKFQRPGDPQSAQDKARMDKEYLSLMAELGEAPVPASVGSTSGPATTPLASAPRPAAPANNPPPPSLMSTTQSRPPWMNSGPSESRPYHGMHGGGPGGPGGGPHSFPHPLPSLTGGHGGHPMQHNPNGPPPPWMQPPPPPMNQGPHPPGHHGPPPMDQYLGSTPVGSGVYRLHQGKGMMPPPPMGMMPPPPPPPSGQPPPPPSGPLPPWQQQQQQPPPPPPPSSSMASSTPLPWQQNTTTTTTSAGTGSIPPWQQQQAAAAASPGAPQMQGNPTMVPLPPGVQPPLPPGAPPPPPPPPPGSAGMMYAPPPPPPPPMDPSNFVTMMGMGVAGMPPFGMPPAPPPPPPQN | B55/PP1 | 4.15 | 19.13 | 19.69 | 20.57 | 3.74 | 18.20 | 19.35 | 19.45
